Square brackets hold non-standard residues; d marks the D form. pY = N[C@@H](Cc1ccc(OP(=O)(O)O)cc1)C(=O)O; Ahx = NCCCCCC(=O)O
Legend:
[1] = tested on: Abl kinase; experiment: Kinase-directed TSAC assembly, MRI T2 mapping; assay type: biochemical; conditions: free phosphopeptide added to Abl kinase-assembled TSACs
Method: Kinase reaction was initiated by adding indicated amount of Abl kinase (New England Biolabs). TSAC assemblies were characterized by DLS over time or MRI.
All TSAC solutions were prepared in final concentration of 10 μg Fe/ml (12 nM TSAC concentration) in 70 μl of kinase reaction buffer. TSAC mixtures were incubated at 30° C. for 3 hours after kinase additions (0, 0.05, 0.1, 0.2, 0.5 U/μl), and then MRI images were taken using a 4.7 T Bruker magnet (7 cm bore) using T2-mapping Carr-Purcell-Meiboom-Gill (CPMG) pulse sequence. To reverse assembly, 4 U/μl YOP phosphatase or 0.1 mM free pY-peptide was added to an assembled TSAC solution containing 0.2 U/μl Abl kinase. The MRI image was taken after 10 minutes at room temperature.

[2] = target: T1, Crk SH2 domain (Homo sapiens, UniProt P46108); experiment: SH2-binding peptide-mediated TSAC assembly, dynamic light scattering
T1 construct: The Crk SH2 domain was genetically modified to contain an N-terminal cysteine; GST (N, cleaved yes); made in house; host or cells: E. coli BL21-Gold(DE3)
T1 sequence (P46108 13-118 limits assumed): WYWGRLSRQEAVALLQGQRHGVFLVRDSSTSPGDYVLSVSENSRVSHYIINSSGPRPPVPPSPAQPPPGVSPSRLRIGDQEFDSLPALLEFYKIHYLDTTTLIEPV

[3] = target: Crk SH2 (Homo sapiens, UniProt P46108); conditions: free peptide; cited from earlier work
Sequence of Crk SH2 (P46108 13-118 limits assumed): as above

Sequence of Abl kinase (P00521 128-379): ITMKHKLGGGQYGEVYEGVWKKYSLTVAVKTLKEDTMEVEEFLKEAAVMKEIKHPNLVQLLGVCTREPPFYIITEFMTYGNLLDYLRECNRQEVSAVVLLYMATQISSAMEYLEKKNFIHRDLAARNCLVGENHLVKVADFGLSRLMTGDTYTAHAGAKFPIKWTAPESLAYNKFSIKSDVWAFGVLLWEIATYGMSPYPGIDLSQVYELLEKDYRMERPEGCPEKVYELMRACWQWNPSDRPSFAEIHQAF

TAMRA-(Ahx)SRVGEEEHVpYSFPNKQKSAEC-CONH2 [free pY-Abl substrate]
effect of free substrate on kinase-directed T2 enhancement [1]: lost

TAMRA-C(Ahx)QpYDHPNI-CONH2 ({TAMRA}-C[Ahx]Q[pY]DHPNI-NH2; not fully specified) [free pY peptide]
reversal of pY TSAC / SH2 TSAC assembly by added free peptide ([2]; 200 μM free peptide added after 10 minute incubation): rapidly disassembled
effect of free peptide on pY TSAC / SH2 TSAC assembly ([2]; 200 μM free peptide present): inhibited
binding affinity to Crk SH2 [3]: low μM

Source: patent US20090246142A1, “Triggered Self-Assembly of Nanoparticles In Vivo” (MASSACHUSETTS INSTITUTE OF TECHNOLOGY, priority 2006, published 2009)
